Test [1] concerns the target Staphylococcus aureus 70S ribosome (S. aureus NCTC 8325-4 (endogenous)) (UniProt Q2FW21). Put plainly: cryo-EM structure; FA-CP complex: as the FA complex but with 5 uM E. coli tRNAfMet and 400 uM FA-CP instead of FA; CHI state 2.0 Å, POST state 2.4 Å.
Test [2] has the same target. In words: cryo-EM structure; FA complex: 0.5 uM S. aureus 70S, 2 uM mRNA Z4AUGGCA, 2 uM E. coli tRNAfMet, 5 uM S. aureus EF-G, 400 uM FA, 1 mM GTP in HEPES polymix buffer (20 mM HEPES pH 7.5, 5 mM BME), 10 min steps at 37 °C; 1 ul of 25 uM FusB with 400 uM FA mixed into the drop on the grid; CHI state 2.5 Å (modelled), POST state 3.1 Å (not modelled).
For test [3], the target named is T1, Staphylococcus aureus elongation factor G (Staphylococcus aureus, UniProt P68790 1-693).
T1 construct: Ser-Leu that remains at the N-terminus after TEV cleavage of the 6xHis tag and linker; In the complexes EF-G carries GDP, magnesium and FA or FA-CP; also called EF-G; S. aureus EF-G; source: E. coli BL21 (DE3), purified (Ni Sepharose, TEV cleavage, reverse IMAC, Superdex-200 gel filtration); not shown: 6xHis, N-terminal, cleaved
The description is as above. The conditions noted are these: both partners purified.

In test [1], “Staphylococcus aureus elongation factor G (from UniProt P68790 1-693) (natural protein)” had a percent of 70S particles that contain EF-G of 72%. The same molecule displayed a percent of ribosomes bound to EF-G in test [2] of 60%.

B1: Staphylococcus aureus ribosomal protein uL6 (natural protein, S. aureus NCTC 8325-4 (endogenous), UniProt Q2FW21 1-178, looked up)
chain: MSRVGKKIIDIPSDVTVTFDGNHVTVKGPKGELSRTLNERMTFKQEENTIEVVRPSDSKEDRTNHGTTRALLNNMVQGVSQGYVKVLELVGVGYRAQMQGKDLILNVGYSHPVEIKAEENITFSVEKNTVVKVEGISKEQVGALASNIRSVRPPEPYKGKGIRYQGEYVRRKEGKTGK
notes: Large-subunit ribosomal protein uL6 of S. aureus, encoded by rplF, as it stands in the native 70S ribosome; Present as a subunit of the 70S ribosome, not as an isolated protein; source: endogenous, in 70S ribosomes purified from S. aureus NCTC 8325-4 (sucrose cushions, zonal centrifugation)
Regarding B1, the binding result in test [3] is listed as “binds”.
